Assay results from paper PMC7946940 (Nature Communications, 2021).
Changes are numbered by the printed parent chain. Names may count otherwise. Values belong to the binder of their own block, whether it stands above or below them.

What was measured:
Conditions in all cases: both partners purified
[1] = target: T1, VPS34 (subunit of complex II–BATS in the cryo-ET structure) (human, UniProt Q8NEB9 1-887); assay: cryo-EM structure; cryo-ET and subtomogram averaging, 9.8 Å; 16 μM complex II–BATS on LUVs decorated with Rab5a–GTP
T1 construct: VPS34, human; source: Expi293F, transfected, purified within complex II–BATS
T1 sequence (Q8NEB9 whole entry, one chain of several): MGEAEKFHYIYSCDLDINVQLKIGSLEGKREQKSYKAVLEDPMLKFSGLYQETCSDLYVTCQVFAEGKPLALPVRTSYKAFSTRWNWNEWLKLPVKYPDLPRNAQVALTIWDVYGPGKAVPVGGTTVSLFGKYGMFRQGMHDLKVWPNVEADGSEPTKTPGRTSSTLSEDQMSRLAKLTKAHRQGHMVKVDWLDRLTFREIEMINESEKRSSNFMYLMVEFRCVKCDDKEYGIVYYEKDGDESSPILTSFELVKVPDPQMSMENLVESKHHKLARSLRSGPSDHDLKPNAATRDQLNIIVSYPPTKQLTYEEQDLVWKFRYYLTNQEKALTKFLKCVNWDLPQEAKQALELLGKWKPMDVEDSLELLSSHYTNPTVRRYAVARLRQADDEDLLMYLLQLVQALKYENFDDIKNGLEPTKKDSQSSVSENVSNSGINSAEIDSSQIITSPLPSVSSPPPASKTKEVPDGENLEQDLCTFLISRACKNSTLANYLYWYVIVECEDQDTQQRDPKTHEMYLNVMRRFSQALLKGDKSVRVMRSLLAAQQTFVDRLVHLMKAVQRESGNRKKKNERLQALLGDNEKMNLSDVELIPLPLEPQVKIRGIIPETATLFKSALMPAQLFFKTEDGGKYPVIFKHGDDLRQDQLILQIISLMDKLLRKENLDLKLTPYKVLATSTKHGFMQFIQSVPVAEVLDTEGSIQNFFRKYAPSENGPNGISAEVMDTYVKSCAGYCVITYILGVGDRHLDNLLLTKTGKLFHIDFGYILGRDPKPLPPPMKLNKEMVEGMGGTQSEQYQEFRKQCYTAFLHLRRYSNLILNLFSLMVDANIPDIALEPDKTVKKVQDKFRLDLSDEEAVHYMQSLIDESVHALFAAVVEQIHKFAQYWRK

[2] = target: T2, VPS15 (subunit of complex II–BATS in the cryo-ET structure) (human, UniProt Q99570 1-1358); assay: as above
T2 construct: VPS15, human; source: Expi293F, transfected, purified within complex II–BATS
T2 sequence (Q99570 whole entry, one chain of several): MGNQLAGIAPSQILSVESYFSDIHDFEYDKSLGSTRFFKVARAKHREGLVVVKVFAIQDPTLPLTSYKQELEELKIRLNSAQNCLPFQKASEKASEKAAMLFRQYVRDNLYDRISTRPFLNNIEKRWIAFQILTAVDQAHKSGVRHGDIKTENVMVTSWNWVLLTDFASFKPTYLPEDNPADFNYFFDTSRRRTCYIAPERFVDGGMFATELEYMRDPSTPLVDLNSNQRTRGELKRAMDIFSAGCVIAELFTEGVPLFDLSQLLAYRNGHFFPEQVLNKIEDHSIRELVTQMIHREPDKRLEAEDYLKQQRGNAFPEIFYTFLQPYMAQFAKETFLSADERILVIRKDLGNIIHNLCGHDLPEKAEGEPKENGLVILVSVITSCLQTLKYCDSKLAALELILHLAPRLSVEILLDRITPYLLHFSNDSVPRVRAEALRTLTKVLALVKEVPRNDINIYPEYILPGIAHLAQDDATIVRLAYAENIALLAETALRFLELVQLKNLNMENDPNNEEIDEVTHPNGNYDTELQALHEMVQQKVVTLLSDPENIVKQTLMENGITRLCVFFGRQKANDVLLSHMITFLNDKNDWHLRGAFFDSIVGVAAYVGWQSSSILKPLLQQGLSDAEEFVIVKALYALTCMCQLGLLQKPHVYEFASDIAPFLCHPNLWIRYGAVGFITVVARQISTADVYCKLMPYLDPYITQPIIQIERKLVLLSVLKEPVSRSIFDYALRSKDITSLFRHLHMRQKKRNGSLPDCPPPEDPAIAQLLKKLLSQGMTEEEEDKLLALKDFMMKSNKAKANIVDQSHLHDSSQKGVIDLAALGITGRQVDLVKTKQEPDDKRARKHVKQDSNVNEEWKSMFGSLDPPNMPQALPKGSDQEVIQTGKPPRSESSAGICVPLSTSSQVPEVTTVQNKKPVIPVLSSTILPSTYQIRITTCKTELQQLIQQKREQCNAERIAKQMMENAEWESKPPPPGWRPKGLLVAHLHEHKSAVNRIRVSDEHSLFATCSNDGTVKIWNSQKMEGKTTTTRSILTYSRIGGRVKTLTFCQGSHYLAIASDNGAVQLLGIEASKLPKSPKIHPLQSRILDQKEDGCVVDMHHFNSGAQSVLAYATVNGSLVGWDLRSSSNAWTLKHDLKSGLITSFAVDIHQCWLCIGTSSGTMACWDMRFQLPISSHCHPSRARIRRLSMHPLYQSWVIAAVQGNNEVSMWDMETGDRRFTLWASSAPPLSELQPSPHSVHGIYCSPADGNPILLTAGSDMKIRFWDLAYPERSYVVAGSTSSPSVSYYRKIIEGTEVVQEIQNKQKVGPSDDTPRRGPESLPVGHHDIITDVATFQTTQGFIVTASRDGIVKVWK

[3] = target: T3, human VPS34 complex I (VPS34/VPS15/Beclin 1/ATG14L) (human, UniProt Q8NEB9 1-887; Q99570 1-1358; Q14457 1-450; Q6ZNE5 1-492); assay: vesicle flotation assay; GTP-loaded Rab coupled by its C-terminal Cys to PE-MCC in 100 nm LUVs; 1.8 mM LUVs and 2 μM VPS34 complex, 25 mM HEPES pH 8.0, 150 mM NaCl, 1 mM TCEP, 30 min on ice; sucrose gradient, fractions on SDS-PAGE
T3 construct: VPS34, human, subunit of complex I; VPS15, human, subunit of complex I; Beclin 1, human, subunit of complex I; ATG14L, human, subunit of complex I; Heterotetramer; Purified on IgG beads and released with TEV protease; also called autophagy-specific complex I; source: Expi293F, transfected, purified (IgG beads, TEV protease elution, S200 gel filtration); copies: + + +
T3 sequence (Q8NEB9 whole entry, chain 1 of 4): as the sequence (Q8NEB9 whole entry, one chain of several) above
T3 sequence (Q99570 whole entry, chain 2 of 4): as the sequence (Q99570 whole entry, one chain of several) above
T3 sequence (Q14457 whole entry, chain 3 of 4): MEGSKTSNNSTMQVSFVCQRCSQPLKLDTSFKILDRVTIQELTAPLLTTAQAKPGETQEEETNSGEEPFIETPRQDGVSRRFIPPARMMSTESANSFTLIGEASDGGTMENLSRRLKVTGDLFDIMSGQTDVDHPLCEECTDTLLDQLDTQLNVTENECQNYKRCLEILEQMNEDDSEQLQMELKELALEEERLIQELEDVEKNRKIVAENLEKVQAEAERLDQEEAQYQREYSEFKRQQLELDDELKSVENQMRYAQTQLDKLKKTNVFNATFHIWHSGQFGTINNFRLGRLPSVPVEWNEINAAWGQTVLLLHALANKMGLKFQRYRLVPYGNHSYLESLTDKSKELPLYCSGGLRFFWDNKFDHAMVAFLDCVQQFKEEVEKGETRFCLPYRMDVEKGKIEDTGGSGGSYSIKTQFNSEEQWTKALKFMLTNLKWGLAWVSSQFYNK
T3 sequence (Q6ZNE5 whole entry, chain 4 of 4): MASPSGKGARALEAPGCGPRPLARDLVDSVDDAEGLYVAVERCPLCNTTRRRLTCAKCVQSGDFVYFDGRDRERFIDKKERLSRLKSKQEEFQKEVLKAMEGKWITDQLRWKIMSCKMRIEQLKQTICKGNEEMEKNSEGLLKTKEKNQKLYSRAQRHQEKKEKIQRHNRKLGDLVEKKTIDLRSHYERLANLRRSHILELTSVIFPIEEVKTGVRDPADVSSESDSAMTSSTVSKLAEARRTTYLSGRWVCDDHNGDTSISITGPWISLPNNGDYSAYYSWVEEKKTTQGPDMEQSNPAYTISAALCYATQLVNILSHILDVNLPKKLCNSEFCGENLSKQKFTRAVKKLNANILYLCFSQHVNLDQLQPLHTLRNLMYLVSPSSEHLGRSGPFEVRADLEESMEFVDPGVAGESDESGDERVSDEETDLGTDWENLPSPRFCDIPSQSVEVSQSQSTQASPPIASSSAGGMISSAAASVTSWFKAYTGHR

[4] = target: T4, human VPS34 complex II (VPS34/VPS15/Beclin 1/UVRAG) (human, UniProt Q8NEB9 1-887; Q99570 1-1358; Q14457 1-450; Q9P2Y5 1-699); assay: as above
T4 construct: VPS34, human, subunit of complex II; VPS15, human, subunit of complex II; Beclin 1, human, subunit of complex II; UVRAG, human, subunit of complex II; Heterotetramer; Purified on IgG beads and released with TEV protease; also called endocytic complex II; source: Expi293F, transfected, purified (IgG beads, TEV protease elution, S200 gel filtration); copies: + + +
T4 sequence (Q8NEB9 whole entry, chain 1 of 4): as the sequence (Q8NEB9 whole entry, one chain of several) above
T4 sequence (Q99570 whole entry, chain 2 of 4): as the sequence (Q99570 whole entry, one chain of several) above
T4 sequence (Q14457 whole entry, chain 3 of 4): as the sequence (Q14457 whole entry, chain 3 of 4) above
T4 sequence (Q9P2Y5 whole entry, chain 4 of 4): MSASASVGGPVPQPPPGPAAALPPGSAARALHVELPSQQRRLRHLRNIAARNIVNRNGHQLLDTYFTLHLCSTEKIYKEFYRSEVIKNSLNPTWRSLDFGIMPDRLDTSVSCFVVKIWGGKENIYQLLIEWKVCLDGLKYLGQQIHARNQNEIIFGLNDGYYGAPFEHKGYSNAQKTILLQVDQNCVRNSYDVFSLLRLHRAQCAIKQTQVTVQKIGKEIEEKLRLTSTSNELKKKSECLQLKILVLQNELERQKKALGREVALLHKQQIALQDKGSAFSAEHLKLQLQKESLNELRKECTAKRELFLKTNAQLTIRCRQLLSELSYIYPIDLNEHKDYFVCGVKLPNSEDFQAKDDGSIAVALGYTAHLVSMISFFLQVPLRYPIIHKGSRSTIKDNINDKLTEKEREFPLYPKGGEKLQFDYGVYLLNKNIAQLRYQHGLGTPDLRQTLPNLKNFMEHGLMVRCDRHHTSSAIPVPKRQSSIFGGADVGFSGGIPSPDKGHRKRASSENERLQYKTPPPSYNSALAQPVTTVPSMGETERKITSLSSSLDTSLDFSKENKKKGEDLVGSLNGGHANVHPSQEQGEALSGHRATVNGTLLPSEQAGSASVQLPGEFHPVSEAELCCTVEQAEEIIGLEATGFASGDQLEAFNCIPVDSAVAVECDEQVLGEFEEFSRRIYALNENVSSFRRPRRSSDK

human VPS34 alone = target: T5, human VPS34 alone (human, UniProt Q8NEB9 1-887); assay: cross-linking; proximity-triggered cross-linking by the unnatural amino acid BrCO6K at Rab5a residue 84; 50–100 molar excess of Rab5a over complex II, 100–200 molar excess over VPS34; overnight at 4 °C; SDS-PAGE and mass spectrometry of the bands
T5 construct: VPS34, human; printed mass 102 kDa; source: E. coli C41 (DE3), purified (Ni-NTA, heparin, gel filtration)
T5 sequence (Q8NEB9 whole entry): as the sequence (Q8NEB9 whole entry, one chain of several) above

[5] = target: T4, human VPS34 complex II …; assay: as above
[6] = target: T4, human VPS34 complex II …; assay: HDX-MS; complex II (5 μM) alone or with 30 μM Rab5a-Q79L-GTP; 25 mM HEPES pH 8.0, 50 mM NaCl, 1 mM TCEP, room temperature; 3/30/300/3000 s

binding result [1]: binds
binding result [2]: binds
binding result [4]: binds
B1: Rab5a(1–212)-Q79L-C19S-C63S (natural protein, human, UniProt P20339 1-212, looked up)
chain: MASRGATRPNGPNTGNKISQFKLVLLGESAVGKSSLVLRFVKGQFHEFQESTIGAAFLTQTVSLDDTTVKFEIWDTAGLERYHSLAPMYYRGAQAAIVVYDITNEESFARAKNWVKELQRQASPNIVIALSGNKADLANKRAVDFQEAQSYADDNSLLFMETSAKTSMNVNEIFMAIAKKLPKNEPQNPGANSARGRGVDLTEPTQPTRNQC
modifications: C-terminal cysteine coupled covalently to a maleimide-conjugated lipid (PE-MCC) in the membrane
notes: Rab5a, human, residues 1–212; Loaded with GTP or GDP before coupling to GUVs or LUVs; also called Rab5a (Q79L); membrane-anchored Rab5a–GTP; source: E. coli C41(DE3)RIPL, purified (Ni-NTA, SUMO protease, size-exclusion chromatography); not shown: His-SUMO, N-terminal, cleaved
binding result [3]: binds

binding result (human VPS34 alone): binds
binding result [5]: binds
B2: Rab5a S84BrCO6K (Rab5a_Q79L_1-212_C19S_C63S_S84TAG-His6) (natural protein, human, UniProt P20339 1-212, looked up)
chain: B1 chain with S84K
modifications: BrCO6K (bromoalkyl-bearing lysine derivative, unnatural amino acid) at 84
notes: Rab5a, human, residues 1-212, amber codon at S84 read as BrCO6K; Loaded with GTP; Residue 84 is the lysine derivative BrCO6K, written as K; also called Rab5a–GTP–BrCO6K; Rab5a-84BrCO6K; source: E. coli DH10B, purified (Ni-NTA, size-exclusion chromatography)

binding result [6]: binds
B3: Rab5a(1-211)-Q79L (natural protein, human, UniProt P20339 1-211, looked up)
chain: MASRGATRPNGPNTGNKICQFKLVLLGESAVGKSSLVLRFVKGQFHEFQESTIGAAFLTQTVCLDDTTVKFEIWDTAGLERYHSLAPMYYRGAQAAIVVYDITNEESFARAKNWVKELQRQASPNIVIALSGNKADLANKRAVDFQEAQSYADDNSLLFMETSAKTSMNVNEIFMAIAKKLPKNEPQNPGANSARGRGVDLTEPTQPTRNQ
notes: Rab5a, human, last 4 residues (CCSN) deleted, residues 1-211; Loaded with GTP; used soluble for HDX-MS; also called Rab5a-Q79L-GTP; Rab5a (Q79L) loaded with GTP; source: E. coli C41(DE3)RIPL, purified (as Rab5a(1–212)); not shown: His-SUMO, N-terminal, cleaved

B4: Rab1a(1–204)-Q70L-C26S-C126S (natural protein)
chain: not shown
modifications: C-terminal cysteine coupled covalently to a maleimide-conjugated lipid (PE-MCC) in the membrane
notes: Loaded with GTP or GDP before coupling to GUVs or LUVs; also called Rab1a–GTP; Rab1a–GDP; source: E. coli C41(DE3)RIPL, purified (Glutathione Sepharose, TEV protease, HiTrap Q, heparin, size-exclusion chromatography); not shown: GST, N-terminal, cleaved
binding result [3]: binds
